Results taken from paper doi:10.1101/2024.12.05.626995 (bioRxiv, 2024).

B1: His-tagged C-terminal region of ALB3 (aa 350-462) (domain or fragment)
chain: VYLRKLGGAKPNMDENASKIISAGRAKRSIAQPDDAGERFRQLKEQEKRSKKNKAVAKDTVELVEESQSESEEGSDDEEEEAREGALASSTTSKPLPEVGQRRSKRSKRKRTV
B2: His-tagged C-terminal region of ALB4 (aa 334-499) (domain or fragment)
chain: VWLQKYGGAKNPVEKFTNLVTKEDKTQQIEKSFSEPLVQKSVSELKIPREKGGEKVTPECPKPGERFRLLKEQEAKRRREKEERQKAEAALSNQNTDKAHEQDEKSDTAIVAEDDKKTELSAVDETSDGTVAVNGKPSIQKDETTNGTFGIGHDTEQQHSHETEKR

Target: T1, GST-tagged mature full-length GET3b (Arabidopsis thaliana, UniProt A1L4Y1 68-411)
T1 sequence: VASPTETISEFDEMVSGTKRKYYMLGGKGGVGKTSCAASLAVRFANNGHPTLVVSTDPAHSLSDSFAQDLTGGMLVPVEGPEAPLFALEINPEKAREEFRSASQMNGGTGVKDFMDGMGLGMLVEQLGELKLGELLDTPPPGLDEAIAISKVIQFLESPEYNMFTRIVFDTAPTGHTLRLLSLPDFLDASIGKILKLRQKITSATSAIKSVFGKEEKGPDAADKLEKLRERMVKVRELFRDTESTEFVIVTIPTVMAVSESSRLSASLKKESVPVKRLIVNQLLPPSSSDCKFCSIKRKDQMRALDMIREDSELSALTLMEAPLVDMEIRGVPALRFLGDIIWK
Test: pull-down

Binder | binding result
B1 | binds
B2 | binds
